Target: the molecule itself
Assay: native MS; crude bovine lens cortex or nucleus membrane preparation, solubilised in 1% OG, exchanged into 200 mM ammonium acetate, 2x CMC C8E4; static nanospray, Q Exactive UHMR; HCD at 200 V fragmented the tetramer mainly into monomers

B1: Aquaporin-0 (natural protein, bovine, UniProt P06624 1-263, looked up)
chain: MWELRSASFWRAICAEFFASLFYVFFGLGASLRWAPGPLHVLQVALAFGLALATLVQAVGHISGAHVNPAVTFAFLVGSQMSLLRAICYMVAQLLGAVAGAAVLYSVTPPAVRGNLALNTLHPGVSVGQATIVEIFLTLQFVLCIFATYDERRNGRLGSVALAVGFSLTLGHLFGMYYTGAGMNPARSFAPAILTRNFTNHWVYWVGPVIGAGLGSLLYDFLLFPRLKSVSERLSILKGSRPSESNGQPEVTGEPVELKTQAL
notes: Aquaporin-0 (AQP0), bovine lens; the most abundant species is full-length AQP0, tetramer average mass 112,898 Da; Lower-abundance singly and doubly phosphorylated tetramers were also detected; Samples were in 200 mM ammonium acetate with 2x CMC C8E4 (residual OG possible); also called AQP0; crude AQP0; source: endogenous, bovine lens cortex and nucleus: crude urea-washed membrane pellets …
stoichiometry N: 4
